Laboratory results taken from EP2105446A2 (ZymoGenetics, Inc., dated 2009).

How the values were obtained:
[1] = target: factor present in the activated CD3+ selected human T-cell conditioned media (human); assay: cell-based or functional assay
[2] = target: factor present in the activated monkey spleen conditioned media (monkey); assay: cell-based or functional assay

B1: zalpha11CFLG soluble receptor (zalpha11 extracellular domain with C-terminal FLAG tag) (receptor)
chain: not shown
inhibition of BaF3/Zalpha11 cell growth (Alamar Blue), concentration giving complete inhibition [1]: 10 µg/mL | titration of soluble receptor, lowest concentration giving complete inhibition of BaF3/Zalpha11 growth [1]: 20 ng/mL | inhibition of BaF3/Zalpha11 cell growth (Alamar Blue), concentration giving complete inhibition [2]: 10 µg/mL | titration of soluble receptor, lowest concentration giving complete inhibition of BaF3/Zalpha11 growth [2]: 20 ng/mL

B2: zalpha11CEE soluble receptor (zalpha11 extracellular domain with C-terminal Glu-Glu tag) (receptor)
chain: not shown
inhibition of BaF3/Zalpha11 cell growth (Alamar Blue), concentration giving complete inhibition [1]: 10 µg/mL | titration of soluble receptor, lowest concentration giving complete inhibition of BaF3/Zalpha11 growth [1]: 20 ng/mL | inhibition of BaF3/Zalpha11 cell growth (Alamar Blue), concentration giving complete inhibition [2]: 10 µg/mL | titration of soluble receptor, lowest concentration giving complete inhibition of BaF3/Zalpha11 growth [2]: 20 ng/mL
